From patent US20230077531A1 (Sanofi, published 2023)

T1: human FcγRIIa H131 (human, UniProt P12318 34-317, limits assumed)
T1 construct: FACS implies display on cells, but the methods name no FcγRIIa cell line; also called huFcγRIIa H131
T1 sequence (looked up): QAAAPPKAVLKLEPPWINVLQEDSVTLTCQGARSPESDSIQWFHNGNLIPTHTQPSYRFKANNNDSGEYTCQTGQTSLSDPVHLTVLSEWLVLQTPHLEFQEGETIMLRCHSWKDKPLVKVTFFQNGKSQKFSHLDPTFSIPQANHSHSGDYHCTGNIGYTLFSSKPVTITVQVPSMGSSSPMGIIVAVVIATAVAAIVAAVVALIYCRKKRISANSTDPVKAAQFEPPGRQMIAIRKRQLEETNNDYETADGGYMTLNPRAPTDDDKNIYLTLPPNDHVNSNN

T2: human FcγRIIa R131 (human, UniProt P12318 34-317, limits assumed)
T2 construct: FACS implies display on cells, but the methods name no FcγRIIa cell line; also called huFcγRIIa R131
T2 sequence (looked up): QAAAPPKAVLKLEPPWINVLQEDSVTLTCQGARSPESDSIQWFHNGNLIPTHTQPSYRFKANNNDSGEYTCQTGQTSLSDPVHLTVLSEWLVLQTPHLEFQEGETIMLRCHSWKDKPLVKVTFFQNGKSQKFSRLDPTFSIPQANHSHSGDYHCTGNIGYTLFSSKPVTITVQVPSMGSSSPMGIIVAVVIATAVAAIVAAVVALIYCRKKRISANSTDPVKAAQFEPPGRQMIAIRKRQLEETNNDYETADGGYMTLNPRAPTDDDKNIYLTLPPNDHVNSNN


Assays:
human FcRn = molecular target: T3, human FcRn (human, UniProt P55899 24-297); assay: SPR pH 6.0, huFcRn captured, assay 1 n=3
T3 construct: also called huFcRn; recombinant human FcRn
T3 sequence (P55899 24-297): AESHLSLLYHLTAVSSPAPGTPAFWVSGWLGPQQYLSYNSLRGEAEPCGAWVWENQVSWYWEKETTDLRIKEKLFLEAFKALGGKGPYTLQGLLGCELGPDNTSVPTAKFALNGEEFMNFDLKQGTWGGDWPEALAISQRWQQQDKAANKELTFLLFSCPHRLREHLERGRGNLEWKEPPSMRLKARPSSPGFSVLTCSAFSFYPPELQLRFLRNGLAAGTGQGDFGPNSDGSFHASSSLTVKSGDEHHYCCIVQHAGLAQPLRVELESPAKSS

[1] = molecular target: T4, FcγRIIIa V158 on HEK293T cells (human, UniProt P08637 17-254); assay: FACS on HEK293T-FcγRIIIa cells, assay 1 n=3
T4 construct: whole, on cells
T4 sequence (P08637 17-254 F176V): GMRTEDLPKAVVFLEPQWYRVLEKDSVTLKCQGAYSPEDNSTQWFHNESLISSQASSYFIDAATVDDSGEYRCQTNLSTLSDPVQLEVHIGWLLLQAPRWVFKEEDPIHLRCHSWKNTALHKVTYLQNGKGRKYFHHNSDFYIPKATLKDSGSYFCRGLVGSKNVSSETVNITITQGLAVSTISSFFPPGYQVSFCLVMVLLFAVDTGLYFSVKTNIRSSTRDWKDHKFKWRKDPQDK

[2] = molecular target: T5, FcγRIIIa F158 on HEK293T cells (human, UniProt P08637 17-254); assay: FACS on HEK293T-FcγRIIIa cells, assay 1 n=3
T5 construct: whole, on cells; also called HEK293T-FcγRIIIa F158
T5 sequence (P08637 17-254): as the sequence (P08637 17-254 F176V) above, with V160F counted along it

human FcγRIIa H131 = molecular target: T1, human FcγRIIa H131; assay: FACS, assay 1 n=3
human FcγRIIa R131 = molecular target: T2, human FcγRIIa R131; assay: FACS, assay 1 n=3
[3] = molecular target: T6, huFcγRIIIa_V158 His protein (human, UniProt P08637 17-208); assay: SPR, His-receptor captured, assay 1 n=3
T6 construct: also called His-tagged recombinant human FcγRIIIa-V158
T6 sequence (P08637 17-208 F176V limits assumed): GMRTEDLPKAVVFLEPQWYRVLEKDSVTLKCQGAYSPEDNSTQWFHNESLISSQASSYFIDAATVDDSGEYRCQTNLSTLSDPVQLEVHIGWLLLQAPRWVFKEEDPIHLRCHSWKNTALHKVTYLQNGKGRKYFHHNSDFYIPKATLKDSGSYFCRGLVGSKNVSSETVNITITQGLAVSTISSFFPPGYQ

[4] = molecular target: huFcγRIIIa_F158 His protein (human, UniProt P08637 17-208); assay: SPR, His-receptor captured, assay 1 n=3
huFcγRIIIa_F158 His protein, sequence (P08637 17-208 limits assumed): as the sequence (P08637 17-208 F176V limits assumed) above, with V160F counted along it

Binder | Kd (human FcRn) [nM] | EC50 [1] [nM] | EC50 [2] [nM] | EC50 (human FcγRIIa H131) [nM] | EC50 (human FcγRIIa R131) [nM] | Kd [3] [nM] | Kd [4] [nM]
mAb1-ADE-DQ-R292C-V302C (antibody) chain 1: QVQLVQSGAEVKKPGASVKVSCKASGYSFTSYGISWVRQAPGQGLEWMGWISTYKGYTQYAQNFQGRVTITTDTPATTVYMELRSLRSDDTAVYYCARVLSETGYFYYYYYGMDVWGQGTLVTVSSASTKGPSVFPLAPSSKSTSGGTAALGCLVKDYFPEPVTVSWNSGALTSGVHTFPAVLQSSGLYSLSSVVTVPSSSLGTQTYICNVNHKPSNTKVDKKVEPKSCDKTHTCPPCPAPELLAGPDVFLFPPKPKDTLMISRDPEVTCVVVDVSHEDPEVKFNWYVDGVEVHNAKTKPCEEQYNSTYRCVSVLQVLHQDWLNGKEYKCKVSNKALPAPEEKTISKAKGQPREPQVYTLPPSRDELTKNQVSLTCLVKGFYPSDIAVEWESNGQPENNYKTTPPVLDSDGSFFLYSKLTVDKSRWQQGNVFSCSVMHEALHNHYTQKSLSLSPG chain 2: QAVVTQPPSVSGAPGQRVTISCTGSSSNIGADYNVHWYQLLPGTAPKLLIYGNTNRPSGVPDRFSGSKSGTSASLAITGLQAEDEADYYCQSYDSSLSASVFGGGTKLTVLGQPKAAPSVTLFPPSSEELQANKATLVCLISDFYPGAVTVAWKADSSPVKAGVETTTPSKQSNNKYAASSYLSLTPEQWKSHRSYSCQVTHEGSTVEKTVAPTECS | 198 | 10 | 17 | 101 | 45 | 214 | 202
mAb1-ADE-L242C-K334C (antibody) chain 1: QVQLVQSGAEVKKPGASVKVSCKASGYSFTSYGISWVRQAPGQGLEWMGWISTYKGYTQYAQNFQGRVTITTDTPATTVYMELRSLRSDDTAVYYCARVLSETGYFYYYYYGMDVWGQGTLVTVSSASTKGPSVFPLAPSSKSTSGGTAALGCLVKDYFPEPVTVSWNSGALTSGVHTFPAVLQSSGLYSLSSVVTVPSSSLGTQTYICNVNHKPSNTKVDKKVEPKSCDKTHTCPPCPAPELLAGPDVFCFPPKPKDTLMISRTPEVTCVVVDVSHEDPEVKFNWYVDGVEVHNAKTKPREEQYNSTYRVVSVLTVLHQDWLNGKEYKCKVSNKALPAPEECTISKAKGQPREPQVYTLPPSRDELTKNQVSLTCLVKGFYPSDIAVEWESNGQPENNYKTTPPVLDSDGSFFLYSKLTVDKSRWQQGNVFSCSVMHEALHNHYTQKSLSLSPG chain 2: QAVVTQPPSVSGAPGQRVTISCTGSSSNIGADYNVHWYQLLPGTAPKLLIYGNTNRPSGVPDRFSGSKSGTSASLAITGLQAEDEADYYCQSYDSSLSASVFGGGTKLTVLGQPKAAPSVTLFPPSSEELQANKATLVCLISDFYPGAVTVAWKADSSPVKAGVETTTPSKQSNNKYAASSYLSLTPEQWKSHRSYSCQVTHEGSTVEKTVAPTECS | 829 | 5 | 18 | 102 | 142 | 162 | 193

The remaining binders from weak to strong by Kd (human FcRn), led by results:

Kd (human FcRn) [nM] | EC50 [1] [nM] | EC50 [2] [nM] | EC50 (human FcγRIIa H131) [nM] | EC50 (human FcγRIIa R131) [nM] | Kd [3] [nM] | Kd [4] [nM] | Binder
1310 | 12 | 19 | 92 | 43 | 172 | 211 | mAb1-ADE-R292C-V302C (antibody) chain 1: QVQLVQSGAEVKKPGASVKVSCKASGYSFTSYGISWVRQAPGQGLEWMGWISTYKGYTQYAQNFQGRVTITTDTPATTVYMELRSLRSDDTAVYYCARVLSETGYFYYYYYGMDVWGQGTLVTVSSASTKGPSVFPLAPSSKSTSGGTAALGCLVKDYFPEPVTVSWNSGALTSGVHTFPAVLQSSGLYSLSSVVTVPSSSLGTQTYICNVNHKPSNTKVDKKVEPKSCDKTHTCPPCPAPELLAGPDVFLFPPKPKDTLMISRTPEVTCVVVDVSHEDPEVKFNWYVDGVEVHNAKTKPCEEQYNSTYRCVSVLTVLHQDWLNGKEYKCKVSNKALPAPEEKTISKAKGQPREPQVYTLPPSRDELTKNQVSLTCLVKGFYPSDIAVEWESNGQPENNYKTTPPVLDSDGSFFLYSKLTVDKSRWQQGNVFSCSVMHEALHNHYTQKSLSLSPG chain 2: QAVVTQPPSVSGAPGQRVTISCTGSSSNIGADYNVHWYQLLPGTAPKLLIYGNTNRPSGVPDRFSGSKSGTSASLAITGLQAEDEADYYCQSYDSSLSASVFGGGTKLTVLGQPKAAPSVTLFPPSSEELQANKATLVCLISDFYPGAVTVAWKADSSPVKAGVETTTPSKQSNNKYAASSYLSLTPEQWKSHRSYSCQVTHEGSTVEKTVAPTECS
956 | 5 | 11 | 145 | 428 | 161 | 148 | mAb1-ADLE-L242C-K334C (antibody) chain 1: QVQLVQSGAEVKKPGASVKVSCKASGYSFTSYGISWVRQAPGQGLEWMGWISTYKGYTQYAQNFQGRVTITTDTPATTVYMELRSLRSDDTAVYYCARVLSETGYFYYYYYGMDVWGQGTLVTVSSASTKGPSVFPLAPSSKSTSGGTAALGCLVKDYFPEPVTVSWNSGALTSGVHTFPAVLQSSGLYSLSSVVTVPSSSLGTQTYICNVNHKPSNTKVDKKVEPKSCDKTHTCPPCPAPELLAGPDVFCFPPKPKDTLMISRTPEVTCVVVDVSHEDPEVKFNWYVDGVEVHNAKTKPREEQYNSTYRVVSVLTVLHQDWLNGKEYKCKVSNKALPLPEECTISKAKGQPREPQVYTLPPSRDELTKNQVSLTCLVKGFYPSDIAVEWESNGQPENNYKTTPPVLDSDGSFFLYSKLTVDKSRWQQGNVFSCSVMHEALHNHYTQKSLSLSPG chain 2: QAVVTQPPSVSGAPGQRVTISCTGSSSNIGADYNVHWYQLLPGTAPKLLIYGNTNRPSGVPDRFSGSKSGTSASLAITGLQAEDEADYYCQSYDSSLSASVFGGGTKLTVLGQPKAAPSVTLFPPSSEELQANKATLVCLISDFYPGAVTVAWKADSSPVKAGVETTTPSKQSNNKYAASSYLSLTPEQWKSHRSYSCQVTHEGSTVEKTVAPTECS
217 | 4 | 13 | 14 | 18 | 155 | 183 | mAb1-ADE-DQ (antibody) chain 1: QVQLVQSGAEVKKPGASVKVSCKASGYSFTSYGISWVRQAPGQGLEWMGWISTYKGYTQYAQNFQGRVTITTDTPATTVYMELRSLRSDDTAVYYCARVLSETGYFYYYYYGMDVWGQGTLVTVSSASTKGPSVFPLAPSSKSTSGGTAALGCLVKDYFPEPVTVSWNSGALTSGVHTFPAVLQSSGLYSLSSVVTVPSSSLGTQTYICNVNHKPSNTKVDKKVEPKSCDKTHTCPPCPAPELLAGPDVFLFPPKPKDTLMISRDPEVTCVVVDVSHEDPEVKFNWYVDGVEVHNAKTKPREEQYNSTYRVVSVLQVLHQDWLNGKEYKCKVSNKALPAPEEKTISKAKGQPREPQVYTLPPSRDELTKNQVSLTCLVKGFYPSDIAVEWESNGQPENNYKTTPPVLDSDGSFFLYSKLTVDKSRWQQGNVFSCSVMHEALHNHYTQKSLSLSPG chain 2: QAVVTQPPSVSGAPGQRVTISCTGSSSNIGADYNVHWYQLLPGTAPKLLIYGNTNRPSGVPDRFSGSKSGTSASLAITGLQAEDEADYYCQSYDSSLSASVFGGGTKLTVLGQPKAAPSVTLFPPSSEELQANKATLVCLISDFYPGAVTVAWKADSSPVKAGVETTTPSKQSNNKYAASSYLSLTPEQWKSHRSYSCQVTHEGSTVEKTVAPTECS
161 | 7 | 19 | 68 | 152 | 191 | 211 | mAb1-ADE-DQ-L242C-K334C (antibody) chain 1: QVQLVQSGAEVKKPGASVKVSCKASGYSFTSYGISWVRQAPGQGLEWMGWISTYKGYTQYAQNFQGRVTITTDTPATTVYMELRSLRSDDTAVYYCARVLSETGYFYYYYYGMDVWGQGTLVTVSSASTKGPSVFPLAPSSKSTSGGTAALGCLVKDYFPEPVTVSWNSGALTSGVHTFPAVLQSSGLYSLSSVVTVPSSSLGTQTYICNVNHKPSNTKVDKKVEPKSCDKTHTCPPCPAPELLAGPDVFCFPPKPKDTLMISRDPEVTCVVVDVSHEDPEVKFNWYVDGVEVHNAKTKPREEQYNSTYRVVSVLQVLHQDWLNGKEYKCKVSNKALPAPEECTISKAKGQPREPQVYTLPPSRDELTKNQVSLTCLVKGFYPSDIAVEWESNGQPENNYKTTPPVLDSDGSFFLYSKLTVDKSRWQQGNVFSCSVMHEALHNHYTQKSLSLSPG chain 2: QAVVTQPPSVSGAPGQRVTISCTGSSSNIGADYNVHWYQLLPGTAPKLLIYGNTNRPSGVPDRFSGSKSGTSASLAITGLQAEDEADYYCQSYDSSLSASVFGGGTKLTVLGQPKAAPSVTLFPPSSEELQANKATLVCLISDFYPGAVTVAWKADSSPVKAGVETTTPSKQSNNKYAASSYLSLTPEQWKSHRSYSCQVTHEGSTVEKTVAPTECS
